Tested on: DSCR1-FLAG (human Down syndrome critical region 1, C-terminal FLAG epitope)
Sequence (chain, as listed by the source): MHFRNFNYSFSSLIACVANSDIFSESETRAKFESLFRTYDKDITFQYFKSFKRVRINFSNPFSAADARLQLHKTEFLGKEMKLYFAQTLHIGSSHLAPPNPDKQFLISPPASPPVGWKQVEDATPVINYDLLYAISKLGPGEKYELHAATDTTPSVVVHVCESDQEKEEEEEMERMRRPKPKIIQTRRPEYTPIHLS

Substance: calcineurin A (CnA)
- NFATc1 phosphorylation status (Western blot of extracts of activated HUVECs): a shift from the dephosphorylated form of NFATc1 to the phosphorylated form in response to DSCR1

Reference: US20080274993
